Reference: patent publication US20250197448A1 (published 2025)
Each block holds one binder with its values, some of them ahead of it. Starred links: 1 amine or outer side, 2 acyl side, 3 side chain; linkers in the order of their positions; H or OH if unused. Positions of bridges follow the written chain, without caps; N, C: chain ends. Non-standard residues stand in square brackets, D forms with d. No end group written: not given here. O2beY = O-(2-bromoethyl)-tyrosine (p-2beF), reacts with Cys to form a thioether, O=C([C@H](Cc1ccc(OCCBr)cc1)N[*:1])[*:2]; pCaaF = p-(2-chloroacetamido)-phenylalanine, O=C(CCl)Nc1ccc(C[C@H](N[*:1])C(=O)[*:2])cc1

How the values were obtained:
Desert Hedgehog (Dhh) = Desert Hedgehog (Dhh) (human, UniProt O43323 23-198); assay: immobilized Dhh binding assay; FIG. 13C
Sonic Hedgehog (Shh) = Sonic Hedgehog (Shh) (human, UniProt Q15465 24-197); assay: immobilized Shh binding assay; FIG. 13C
Indian Hedgehog (Ihh) = Indian Hedgehog (Ihh) (human, UniProt Q14623 28-202); assay: immobilized Ihh binding assay; FIG. 13C
Sequence of Indian Hedgehog (Ihh) (Q14623 28-202): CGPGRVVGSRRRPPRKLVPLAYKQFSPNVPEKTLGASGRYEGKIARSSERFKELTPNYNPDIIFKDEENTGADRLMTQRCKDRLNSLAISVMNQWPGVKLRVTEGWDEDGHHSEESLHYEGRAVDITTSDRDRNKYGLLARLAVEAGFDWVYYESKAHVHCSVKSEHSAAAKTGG

cRK10(pCmF) = assay: in vitro PD-L1 binding assay
cCLP002(pCmF) = assay: in vitro PD-L1 binding assay
cCLP002(pCaaF) = assay: in vitro PD-L1 binding assay
[1] = target: T1, PD-L1 (Programmed Death-Ligand 1), recombinant, His-tagged (human, UniProt Q9NZQ7 18-134); assay: in vitro PD-L1 binding assay
T1 chain: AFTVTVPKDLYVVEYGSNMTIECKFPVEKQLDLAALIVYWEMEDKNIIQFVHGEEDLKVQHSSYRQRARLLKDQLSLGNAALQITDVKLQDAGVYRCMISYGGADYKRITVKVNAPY

[2] = target: T1, PD-L1 (Programmed Death-Ligand 1), …; assay: in vitro PD-L1 binding assay; FIG. 15A
[3] = target: T1, PD-L1 (Programmed Death-Ligand 1), …; assay: in vitro PD-L1 binding assay

- Kd (Desert Hedgehog (Dhh)): 9 nM
- Kd (Sonic Hedgehog (Shh)): 8 nM
- Kd (Indian Hedgehog (Ihh)): 8 nM
Binder: DYKDDDDKGSGSTLSW[O2beY]EAMDMCTSSQQQQQQ-{Fc-H6} (Fc fusion, thioether 17-23; also: dimeric through the Fc) [L2-m5-Tras-Fc]

- Kd (cRK10(pCmF)): > 100000 nM
- Kd (cCLP002(pCmF)): > 15000 nM
- Kd (cCLP002(pCaaF)): 87000 nM
B1: PD-L1 (ligand)
chain: T1 chain

Binder: DYKDDDDKGSGSWHFS[pCaaF]NWRWLPCQQQQQQ (Fc fusion, thioether 17-24 (inferred); not fully specified (C-terminus)) [cCLP003 (pCaaF)-Tras-Fc]
- Kd [1]: 238 nM

Binder: TYLCGAISLA[pCaaF]KAQIKESL (thioether 4-11) [cyclic peptide cRK10 (pCaaF)]
- Kd [2]: 12000 nM

Binder: DYKDDDDKGSGSTYLCGAISLA[pCaaF]KAQIKESLPAPAP-{Fc-H6} (Fc fusion, thioether 16-23) [FLAG-cRK10-PAPAP-Tras-Fc-His]
- Kd [3]: 90 nM

Binder: DYKDDDDKGSGSTYLCGAISLA[pCaaF]KAQIKESLEAAAK-{Fc-H6} (Fc fusion, thioether 16-23) [FLAG-cRK10-EAAAK-Tras-Fc-His]
- Kd [3]: 88 nM

Binder: DYKDDDDKGSGSTYLCGAISLA[pCaaF]KAQIKESLGSGSGS-{Fc-H6} (Fc fusion, thioether 16-23) [FLAG-cRK10-(GS)3-Tras-Fc-His]
- Kd [3]: 88 nM
